# Source: EP4471049A1 (Zealand Pharma A/S, priority 2023, dated 2024)
# *1 amine or outer side, *2 acyl side, *3 side chain or, on linkers, in order; H or OH if unused. Bridges are numbered along the chain shown (N, C = ends). [ ]: non-standard residue; d: D form. 4‑Aminomethyl‑phenylacetyl = 4-aminomethyl-phenylacetyl unit, its amine closes the lactam, O=C(Cc1ccc(CN[*:1])cc1)[*:2]; 2Nal = N[C@@H](Cc1ccc2ccccc2c1)C(=O)O; AEF = NCCOc1ccc(C[C@H](N)C(=O)O)cc1; 3Pal = N[C@@H](Cc1cccnc1)C(=O)O; αMeL = CC(C)C[C@](C)(N)C(=O)O; Dab = NCC[C@H](N)C(=O)O
# Legend:
# [1] = target: T1, human IL-23R endogenously expressed on DB cells (human, UniProt Q5VWK5 24-629); assay: cell-based or functional assay
# T1 sequence (looked up): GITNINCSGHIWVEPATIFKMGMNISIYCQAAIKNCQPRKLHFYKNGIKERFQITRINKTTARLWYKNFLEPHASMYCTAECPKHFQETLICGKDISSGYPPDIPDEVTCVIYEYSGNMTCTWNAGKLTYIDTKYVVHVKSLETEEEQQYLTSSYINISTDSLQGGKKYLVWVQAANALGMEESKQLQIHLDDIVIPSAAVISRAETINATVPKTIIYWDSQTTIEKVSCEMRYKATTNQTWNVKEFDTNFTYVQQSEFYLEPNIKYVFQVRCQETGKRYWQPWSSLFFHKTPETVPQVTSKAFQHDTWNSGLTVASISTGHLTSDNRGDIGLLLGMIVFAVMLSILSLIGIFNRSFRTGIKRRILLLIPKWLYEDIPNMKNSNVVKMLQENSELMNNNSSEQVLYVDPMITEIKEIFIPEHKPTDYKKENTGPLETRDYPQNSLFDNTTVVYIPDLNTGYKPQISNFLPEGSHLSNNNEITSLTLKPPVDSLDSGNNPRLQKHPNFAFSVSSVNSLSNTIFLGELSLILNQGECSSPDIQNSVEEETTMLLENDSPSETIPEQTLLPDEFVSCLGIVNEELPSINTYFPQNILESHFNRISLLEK
# [2] = target: T2, Nluc-IL23R fusion protein (human, UniProt Q5VWK5 22-629); assay: BRET competition vs TAMRA-labelled peptide, Nluc-IL23R membranes
# T2 construct: range 22-629; expressed with a secretion signal in HEK293 cells; used as crude membrane preparation; also called hIL-23R; human IL-23R; not shown: Nanoluc protein from the expression plasmid N1371 (Promega), N-terminal of IL-23R
# T2 sequence (looked up): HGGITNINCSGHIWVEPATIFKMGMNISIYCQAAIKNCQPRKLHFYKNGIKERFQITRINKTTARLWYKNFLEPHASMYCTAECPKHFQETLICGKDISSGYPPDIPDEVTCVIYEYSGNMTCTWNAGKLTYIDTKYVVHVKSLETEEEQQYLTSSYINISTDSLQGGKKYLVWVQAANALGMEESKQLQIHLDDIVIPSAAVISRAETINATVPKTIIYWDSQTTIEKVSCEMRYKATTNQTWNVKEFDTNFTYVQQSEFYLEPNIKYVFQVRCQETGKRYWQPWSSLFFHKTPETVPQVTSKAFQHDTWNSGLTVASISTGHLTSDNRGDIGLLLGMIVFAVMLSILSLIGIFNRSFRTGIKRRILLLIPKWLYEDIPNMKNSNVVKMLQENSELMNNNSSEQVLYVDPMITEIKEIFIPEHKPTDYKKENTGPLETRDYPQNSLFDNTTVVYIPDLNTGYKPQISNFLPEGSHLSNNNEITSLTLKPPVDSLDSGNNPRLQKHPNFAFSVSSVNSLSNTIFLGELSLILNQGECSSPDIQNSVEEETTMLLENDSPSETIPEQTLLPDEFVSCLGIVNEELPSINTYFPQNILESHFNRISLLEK
binder,measurement,setting,value
"[4‑Aminomethyl‑phenylacetyl]AEWQ[Dab][AEF][2Nal][αMeL]E[Dab][3Pal]-NHMe (lactam N-10, 3-6; SMILES CNC(=O)[C@H](Cc1cccnc1)NC(=O)[C@H](CCN)NC(=O)[C@@H]1CCC(=O)NCc2ccc(cc2)CC(=O)N[C@@H](C)C(=O)N[C@H]2CCC(=O)NCC[C@H](NC(=O)[C@H](CCC(N)=O)NC(=O)[C@H](Cc3c[nH]c4ccccc34)NC2=O)C(=O)N[C@@H](Cc2ccc(OCCN)cc2)C(=O)N[C@@H](Cc2ccc3ccccc3c2)C(=O)N[C@@](C)(CC(C)C)C(=O)N1) [Compound 20]",hIL-23 (pSTAT3) antagonist % inhibition,[1],101%
same,hIL-23 (pSTAT3) antagonist IC50,[1],0.026 nM
same,% displacement (hIL-23R binding),[2],97%
